Results on 14 molecules are retold here after patent US5807824A, “C5A receptor antagonists having substantially no agonist activity” (priority 1995, dated 1998).

Residue numbers refer to the chain shown, from its start. In names and notes the source's numbering stands. Where a SMILES comes first, the peptide text is derived from it.

Test [1] addresses T1, C5a receptor (Homo sapiens, UniProt P21730).
T1 construct: Neutrophils were purified from human peripheral blood; endogenous in cells; host or cells: neutrophils from human peripheral blood
T1 sequence (P21730 1-350): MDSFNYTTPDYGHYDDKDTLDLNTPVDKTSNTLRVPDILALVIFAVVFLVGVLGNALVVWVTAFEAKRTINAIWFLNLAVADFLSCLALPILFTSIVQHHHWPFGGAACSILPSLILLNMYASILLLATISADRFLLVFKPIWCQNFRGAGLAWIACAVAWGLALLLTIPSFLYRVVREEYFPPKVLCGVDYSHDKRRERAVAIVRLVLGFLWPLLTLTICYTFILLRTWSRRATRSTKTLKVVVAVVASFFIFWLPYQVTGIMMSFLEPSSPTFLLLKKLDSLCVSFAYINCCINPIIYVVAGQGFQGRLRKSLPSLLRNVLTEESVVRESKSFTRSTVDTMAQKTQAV
Nature of the test: C5a induced Ca++ rise assay in fura-2 loaded neutrophils. In kind it is cell-based. To be noted: for IC50 / EC50: Table 6, Example 10 comparison with decapeptide; for Concentration up to which tested with agonist activity not detected: calcium rise assay. The source says: The antagonism of the instant C5a analogues may be quantified as an IC50 in the calcium rise assay disclosed in Seligmann et al., Agents and Actions 21:375-378 (1987), described in detail in Example 7.
See Hugli et al., CRC Crit. Rev. Immunol. 1:321-326 (1981) and PCT WO 92/10205. A quantitative measure of this property may also be obtained using the calcium rise assay disclosed in Seligmann et al., supra, also described in Example 7. EC50 is a measure of agonistic activity.
Recombinant human C5a was dissolved in Hanks buffer containing 0.01% Tween-20, and all stock dilutions of C5a were made in this buffer. The acetoxymethyl ester of fura-2 (fura 2AM, Molecular Probes) was dissolved in DMSO. Neutrophils were purified from human peripheral blood by sedimentation in 6% hetastarch (HESPAN, DuPont, Waukegan, Ill., followed by counter flow elutriation as described in Chapman-Kirkland et al., J. Immunol. Meth. 142:95-104 (1991). Purified cells (2×10^6/ ml) were mixed with 0.2 uM fura- 2AM and incubated for 30 min at 37° C. in HEPES buffered Hanks solution without calcium or magnesium. Fifteen minutes before the assay, the cell suspension was transferred to a curvette containing a stir bar and calcium was added to 1 mM. The cell suspension was incubated with stirring at 37° C. Assays were terminated within 5 h of cell purification and a standard control response was obtained periodically to insure that the cell responses were not changing over the time of the experiment. The amount of fluorescence was determined using an SLM 8000 spectrofluorometer (SLM-Aminco Instruments, Urbana, Ill.). Curvettes were placed in the fluorometer and after obtaining a baseline for 10 sec, the C5a receptor antagonists to be tested for antagonistic properties were added and any change in fluoresence excitation ratio of 340 nm/380 nm (emission of 510 nm) was measured. Forty seconds after analogue addition, a challenge dose of C5a was added to a final concentration of 100 pM and the resulting change in excitation ratio was measured.
IC50 values were used as a measure of antagonist potency. These values are defined as the concentration of C5a analogue needed to reduce the calcium rise response of the 100 pM C5a challenge dose by 50%. EC50 values were used as a measure of agonist potency. […]

Test [2] has as its target T1, C5a receptor. Nature of the test: Receptor binding assay: displacement of [125I]Bolton-Hunter labelled C5a from PMNL membranes. As to the method: C5a and C5a receptor antagonists were tested for their affinity for the C5a receptor. […] PMNLs were resuspended in Hanks balanced salt solution, without Ca^++ and Mg^++ and which contained 10 mM HEPES at pH 7.3, 2.5 mM MgCl2, 100 units/ml DNAse I, 0.1 mM PMSF, 10 μg/ml aprotonin and 10 μg/ml leupeptin. They were then equilibrated at 400 psi for 20 min at 4° C. in a nitrogen cavitation bomb. After evacuation into 3 volumes 0.5M KHCO3 containing 25 mM EDTA and the protease inhibitors listed above, the gelatinous material was removed with forceps and the mixture was centrifuged at 400×g for 10 min at 4° C. The resulting supernatant was centrifuged at 50,000×g for 60 min at 4° C. The pellets from the aliquots representing 200×10^6 cells were stored at -70° C. For binding studies, these membranes were resuspended at an equivalent of 20×10^6 cells/ml in 50 mM HEPES at pH 7.3, containing 1 mM CaCl2, 5 mM MgCl2, 0.1 mM PMSF, 0.1% bacitracin and 0.5% BSA.
Nonspecific binding was determined in the presence of 10 nM unlabelled C5a. The binding reaction was initiated by the addition of the PMNL membranes and was continued for 120 min at 4° C. Bound and free radioactivity were separated by vacuum filtration through GF/C glass fiber filters (Whatman), pretreated for 90 min with 0.05% PEI (polyethyleneimine) using a Cell Harvester (Brandel, Gaithersburg, Md.). Filters were washed with 3×5 ml of ice-cold 5 mM Tris buffer at pH 7.4 and counted in a multiwell Gamma counter (Genesys). Data were analyzed using the non-linear regression analysis program, RS/1 (Bolt, Beranek and Newman, Boston) and expressed as IC50 values. The results are set forth below in Table 4 as Ki values using the Cheng-Presoff equation. See Braunwalder et al., supra.

Where [3] appears, read: Table 6, Example 10 comparison with decapeptide.
Where [4] appears, read: Table 4, [125I]BH-C5a 4.0 pM, PMNL membranes, Cheng-Prusoff.

`CC[C@H](C)[C@H](N)C(=O)N[C@@H](CO)C(=O)N[C@@H](Cc1ccccc1)C(=O)N[C@@H](CCCCN)C(=O)N[C@@H](CC(=O)O)C(=O)N[C@@H](CCSC)C(=O)N[C@@H](CCC(N)=O)C(=O)N[C@@H](CC(C)C)C(=O)NCC(=O)N[C@@H](CCCNC(=N)N)C(=O)O` [Decapeptide, reference compound] (H-ISFKDMQLGR-OH): the “Agonist / antagonist character” value on C5a receptor [1] (stated in words) is listed as “significant agonist activity”.

B1: C5a (1-68, T1M, C27S, K68C) (protein, UniProt P01031 678-745, looked up, variant T1M C27S K68C)
chain: MLQKKIEEIAAKYKHSVVKKCCYDGASVNNDETCEQRAARISLGPRCIKAFTECCVVASQLRANISHC
modifications: C5a anaphylatoxin
Take B1: in the test with C5a receptor [2] (setting [3]), the Ki came out at 0.06 nM. In addition, in the test with C5a receptor [1], the IC50 is 84 nM.

B2: C5a (1-70, T1M, C275, M7OC) (protein, UniProt P01031 678-747, looked up, variant T1M C27S M70C)
chain: MLQKKIEEIAAKYKHSVVKKCCYDGASVNNDETCEQRAARISLGPRCIKAFTECCVVASQLRANISHKDC
modifications: C5a anaphylatoxin
For the molecule B2, the results for the inhibitory constant (Ki) in the test with C5a receptor [2] (setting [4]) and in the test with C5a receptor [2] (setting [3]) were 0.4 nM and 0.35 nM, respectively. For the same molecule, in the test with C5a receptor [1], the IC50 came to 859 nM. For the same molecule, in the test with C5a receptor [1], the Concentration up to which tested with agonist activity not detected is > 1 µM.

B3: 8 Cys: cysteine-adduct of the C5a analogue No. 8 (protein, UniProt P01031 678-751, looked up, variant T1M C27S Q71C)
C5a anaphylatoxin: MLQKKIEEIAAKYKHSVVKKCCYDGASVNNDETCEQRAARISLGPRCIKAFTECCVVASQLRANISHKDMCLGR
modifications: C5a anaphylatoxin cysteine adduct
In the test with C5a receptor [2] (setting [4]), B3 displayed a Ki of 2.8 nM.

B4: C5a (1-71, T1M, C27S, Q71S) (protein, UniProt P01031 678-751, looked up, variant T1M C27S Q71S)
C5a anaphylatoxin: B3 C5a anaphylatoxin with C71S
modifications: C5a anaphylatoxin
notes: agonist, included for comparison
As for B4, in the test with C5a receptor [2] (setting [4]), the Ki is 7.5 nM.

B5: C5a (1-71, T1M, C27S, H67F, Q71C) (protein, UniProt P01031 678-751, looked up, variant T1M C27S H67F Q71C)
C5a anaphylatoxin: B3 C5a anaphylatoxin with H67F
modifications: C5a anaphylatoxin truncated to residues 1-71
B5: the affinity with C5a receptor [2] (setting [4]) corresponds to a Ki of 0.1 nM. The “Concentration up to which tested with agonist activity not detected” value in the test with C5a receptor [1] is > 0.8 µM.

B6: C5a (1-71, T1M, C27S, Q71R) (protein, UniProt P01031 678-751, looked up, variant T1M C27S Q71R)
C5a anaphylatoxin: B3 C5a anaphylatoxin with C71R
modifications: C5a anaphylatoxin truncated to residues 1-71
notes: as for B4
Turning to B6, the inhibitory constant (Ki) with C5a receptor [2] (setting [4]) came out at 0.35 nM.

B7: C5a (1-71, T1M, C275, Q71H) (protein, UniProt P01031 678-751, looked up, variant T1M C27S Q71H)
C5a anaphylatoxin: B3 C5a anaphylatoxin with C71H
modifications: C5a anaphylatoxin
notes: as for B4
On to B7, for which the Ki in the test with C5a receptor [2] (setting [4]) is 0.15 nM.

B8: C5a (1-73, T1M, C27S, G73C) (protein, UniProt P01031 678-751, looked up, variant T1M C27S G73C)
C5a anaphylatoxin: B3 C5a anaphylatoxin with C71Q, G73C
modifications: C5a anaphylatoxin truncated to residues 1-73
notes: as for B4
The molecule B8 returned a Ki in the test with C5a receptor [2] (setting [3]) of 0.03 nM. Besides, in the test with C5a receptor [1], the EC50 was determined as 0.6 nM.

B9: C5a (1-71, T1M, C275, Q71L) (protein, UniProt P01031 678-751, looked up, variant T1M C27S Q71L)
C5a anaphylatoxin: B3 C5a anaphylatoxin with C71L
modifications: C5a anaphylatoxin
notes: as for B4
Molecule B9 yielded a Ki with C5a receptor [2] (setting [4]) of 0.035 nM.

B10: C5a (1-71, T1M, C27S) (protein, UniProt P01031 678-751, looked up, variant T1M C27S)
C5a anaphylatoxin: B3 C5a anaphylatoxin with C71Q
modifications: C5a anaphylatoxin
notes: as for B4
In the test with C5a receptor [2] (setting [4]), B10 had a Ki of 3 nM.

B11: C5a (1-71, T1M, C275, Q71D) (protein, UniProt P01031 678-751, looked up, variant T1M C27S Q71D)
C5a anaphylatoxin: B3 C5a anaphylatoxin with C71D
modifications: C5a anaphylatoxin
notes: as for B4
Molecule B11 came in with a Ki with C5a receptor [2] (setting [4]) of 8.5 nM.

B12: C5a: human C5a, a 74-amino acid polypeptide; recombinant human C5a used as reference agonist (protein, UniProt P01031 678-751, looked up)
C5a anaphylatoxin: B3 C5a anaphylatoxin with M1T, S27C, C71Q
modifications: C5a anaphylatoxin
On to B12, for which, in the test with C5a receptor [1], the EC50 is 0.07 nM.

B13: C5a (1-72, T1M, C27S, L72C) (protein, UniProt P01031 678-751, looked up, variant T1M C27S L72C)
C5a anaphylatoxin: B3 C5a anaphylatoxin with C71Q, L72C
modifications: C5a anaphylatoxin truncated to residues 1-72
Take B13: the figures for the Ki with C5a receptor [2] (setting [4]) and with C5a receptor [2] (setting [3]) were 0.9 nM and 0.15 nM, respectively. Also, in the test with C5a receptor [1], the midpoint of inhibition, the IC50, lay at 621 nM. The Concentration up to which tested with agonist activity not detected with C5a receptor [1] is > 1.5 µM.
